Reference: PMC4046772, “Different Dynamical Effects in Mesophilic and Hyperthermophilic Dihydrofolate Reductases” (Journal of the American Chemical Society, 2014)

Key:
steady-state kinetics [1] = substrate: Nc1nc2c(c(=O)[nH]1)N=C(CNc1ccc(C(=O)N[C@@H](CCC(=O)O)C(=O)O)cc1)CN2; assay: steady-state kinetics; format: biochemical, Thermotoga maritima; conditions: 45 °C, light enzyme (natural isotope abundance), co-substrate NADPH, steady-state kinetics at pH 7
steady-state kinetics [2] = substrate: NC(=O)C1=CN([C@@H]2O[C@H](COP(=O)(O)OP(=O)(O)OC[C@H]3O[C@@H](n4cnc5c(N)ncnc54)[C@H](OP(=O)(O)O)[C@@H]3O)[C@@H](O)[C@H]2O)C=CC1; assay: steady-state kinetics; format: biochemical, Thermotoga maritima; conditions: 45 °C, light enzyme (natural isotope abundance), co-substrate dihydrofolate, steady-state kinetics at pH 7

B1: TmDHFR (Thermotoga maritima MSB8) (protein)
chain: MAKVIFVLAMDVSGKIASSVESWSSFEDRKNFRKITTEIGNVVMGRITFEEIGRPLPERLNVVLTRRPKTSNNPSLVFFNGSPADVVKFLEGKGYERVAVIGGKTVFTEFLREKLVDELFVTVEPYVFGKGIPFFDEFEGYFPLKLLEMRRLNERGTLFLKYSVEKSHR
notes: purified homodimer, natural isotope abundance (light) enzyme; procedures in supplement
Protein B1 has a Km (steady-state kinetics [1]) of 1 µM and a Km (steady-state kinetics [2]) of 1 µM.
